Measured values from the Immune Epitope Database (IEDB).

Assays:
[1] = molecular target: HLA-C*15:02; experiment: IEDB peptide-MHC binding, purified MHC/direct/fluorescence; filed as Kd, often an IC50 or EC50 that approximates it; ≥ and ≤ were set here for values at or beyond the usual limits of such assays; settings: source organism: Burkholderia mallei NCTC 10229
[2] = molecular target: HLA-B*39:01; experiment: IEDB peptide-MHC binding, purified MHC/competitive/fluorescence; filed as Kd, often an IC50 or EC50 that approximates it; ≥ and ≤ were set here for values at or beyond the usual limits of such assays; settings: source organism: Burkholderia mallei NCTC 10229
[3] = molecular target: HLA-A*02:19; experiment: as above; settings: source organism: Burkholderia mallei NCTC 10229
[4] = molecular target: HLA-A*80:01; experiment: as above; settings: source organism: Burkholderia mallei NCTC 10229
[5] = molecular target: HLA-A*29:02; experiment: as above; settings: source organism: Burkholderia mallei NCTC 10229
[6] = molecular target: HLA-A*02:12; experiment: as above
[7] = molecular target: HLA-A*26:01; experiment: as above; settings: source organism: Burkholderia mallei NCTC 10229
[8] = molecular target: HLA-B*14:02; experiment: IEDB peptide-MHC binding, purified MHC/direct/fluorescence; filed as Kd, often an IC50 or EC50 that approximates it; ≥ and ≤ were set here for values at or beyond the usual limits of such assays; settings: source organism: Homo sapiens
[9] = molecular target: HLA-C*05:01; experiment: as above; settings: source organism: Entamoeba histolytica HM-1:IMSS
[10] = molecular target: HLA-B*45:06; experiment: IEDB peptide-MHC binding, purified MHC/competitive/fluorescence; filed as Kd, often an IC50 or EC50 that approximates it; ≥ and ≤ were set here for values at or beyond the usual limits of such assays; settings: source organism: Entamoeba histolytica HM-1:IMSS
[11] = molecular target: HLA-A*68:23; experiment: as above; settings: source organism: Entamoeba histolytica HM-1:IMSS
[12] = molecular target: HLA-B*15:42; experiment: as above; settings: source organism: Entamoeba histolytica HM-1:IMSS
[13] = molecular target: HLA-B*83:01; experiment: as above; settings: source organism: Entamoeba histolytica HM-1:IMSS
[14] = molecular target: HLA-B*51:01; experiment: as above; settings: source organism: Entamoeba histolytica HM-1:IMSS
[15] = molecular target: HLA-B*40:13; experiment: as above; settings: source organism: Entamoeba histolytica HM-1:IMSS
[16] = molecular target: HLA-A*32:15; experiment: as above; settings: source organism: Entamoeba histolytica HM-1:IMSS
[17] = molecular target: HLA-A*02:03; experiment: as above; settings: source organism: Escherichia coli str. K-12 substr. DH10B
[18] = molecular target: HLA-A*31:01; experiment: as above; settings: source organism: Escherichia coli str. K-12 substr. DH10B
[19] = molecular target: HLA-A*30:01; experiment: as above; settings: source organism: Escherichia coli str. K-12 substr. DH10B
[20] = molecular target: HLA-A*11:01; experiment: as above; settings: source organism: Escherichia coli str. K-12 substr. DH10B
[21] = molecular target: HLA-A*03:01; experiment: as above; settings: source organism: Escherichia coli str. K-12 substr. DH10B
[22] = molecular target: HLA-A*02:01; experiment: as above; settings: source organism: Escherichia coli str. K-12 substr. DH10B
[23] = molecular target: HLA-B*18:01; experiment: as above; settings: source organism: Escherichia coli str. K-12 substr. DH10B
[24] = molecular target: HLA-A*26:02; experiment: as above; settings: source organism: Escherichia coli str. K-12 substr. DH10B
[25] = molecular target: HLA-B*15:01; experiment: as above; settings: source organism: Escherichia coli str. K-12 substr. DH10B
[26] = molecular target: HLA-B*48:01; experiment: as above; settings: source organism: Escherichia coli str. K-12 substr. DH10B
[27] = molecular target: HLA-B*08:02; experiment: as above; settings: source organism: Escherichia coli str. K-12 substr. DH10B
[28] = molecular target: HLA-B*35:01; experiment: as above; settings: source organism: Escherichia coli str. K-12 substr. DH10B
[29] = molecular target: HLA-B*07:02; experiment: as above; settings: source organism: Escherichia coli str. K-12 substr. DH10B
[30] = molecular target: HLA-B*08:03; experiment: as above; settings: source organism: Escherichia coli str. K-12 substr. DH10B
[31] = molecular target: HLA-B*46:01; experiment: as above
[32] = molecular target: HLA-B*40:01; experiment: as above; settings: source organism: Escherichia coli str. K-12 substr. DH10B
[33] = molecular target: HLA-B*27:05; experiment: as above; settings: source organism: Escherichia coli str. K-12 substr. DH10B
[34] = molecular target: HLA-A*01:01; experiment: as above; settings: source organism: Escherichia coli str. K-12 substr. DH10B
[35] = molecular target: HLA-B*58:01; experiment: as above; settings: source organism: Escherichia coli str. K-12 substr. DH10B
[36] = molecular target: HLA-B*15:02; experiment: as above; settings: source organism: Homo sapiens
[37] = molecular target: HLA-A*02:07; experiment: IEDB peptide-MHC binding, purified MHC/competitive/radioactivity; filed as Kd, often an IC50 or EC50 that approximates it; ≥ and ≤ were set here for values at or beyond the usual limits of such assays; settings: source organism: Homo sapiens
[38] = molecular target: HLA-B*57:01; experiment: as above; settings: source organism: Homo sapiens
[39] = molecular target: HLA-A*02:01; experiment: as above; settings: source organism: Homo sapiens
[40] = molecular target: HLA-A*29:02; experiment: as above; settings: source organism: Homo sapiens
[41] = molecular target: HLA-B*58:01; experiment: as above; settings: source organism: Homo sapiens
[42] = source organism: Escherichia coli str. K-12 substr. DH10B

RTFGQPLFF
Kd [1]: 5 nM
Kd [2]: ≥ 20000 nM
Kd [3]: ≥ 20000 nM
Kd [4]: 413 nM
Kd [5]: 0.2 nM
Kd ([6]; source organism: Burkholderia mallei NCTC 10229): ≥ 20000 nM
Kd [7]: ≥ 20000 nM

DELNHASI
Kd [8]: 163 nM

MPYHGYHII
Kd [9]: ≥ 20000 nM
Kd [10]: ≥ 5000 nM
Kd [11]: 95 nM
Kd [12]: ≥ 5000 nM
Kd [13]: 36.9 nM
Kd [14]: 91 nM
Kd [15]: 44.1 nM
Kd [16]: 134 nM

QVIFKCVPK
Kd [17]: ≥ 20000 nM
Kd [18]: 4770 nM
Kd [19]: 75.3 nM
Kd [20]: 190 nM
Kd [21]: 1070 nM
Kd [22]: 367 nM
Kd [23]: ≥ 20000 nM
Kd [24]: ≥ 20000 nM
Kd [6, 42]: 68.6 nM
Kd [25]: ≥ 20000 nM
Kd [26]: ≥ 20000 nM
Kd [27]: ≥ 20000 nM
Kd [28]: ≥ 20000 nM
Kd [29]: ≥ 20000 nM
Kd [30]: ≥ 20000 nM
Kd [31, 42]: ≥ 20000 nM
Kd [32]: ≥ 20000 nM
Kd [33]: ≥ 20000 nM
Kd [34]: 1040 nM
Kd [35]: 2260 nM

SIRDGVRAY
Kd [36]: 13.8 nM
Kd ([31]; source organism: Homo sapiens): 51.5 nM
Kd [37]: ≥ 60000 nM
Kd [38]: ≥ 45600 nM
Kd [39]: ≥ 78100 nM
Kd [40]: 2870 nM
Kd [41]: ≥ 48300 nM
